Experiments:
[1] = molecular target: human IGF1R, endogenous, on the surface of breast cancer cell lines (MCF-7, JIMT-1, BT474) (human) (UniProt P08069); experiment: FACS on MCF-7 cells (FL1-H), anti-human FITC; same table: Untreated 2.51, 2nd Ab only 4.53
[2] = molecular target: human IGF1R, endogenous, on the surface of breast cancer cell lines (MCF-7, JIMT-1, BT474) (human) (UniProt P08069); experiment: FACS on JIMT-1 cells (FL1-H), anti-human FITC; same table: Untreated 1.36, 2nd Ab only 1.89
[3] = molecular target: human IGF1R, endogenous, on the surface of breast cancer cell lines (MCF-7, JIMT-1, BT474) (human) (UniProt P08069); experiment: FACS on BT474 cells (FL1-H), anti-human FITC; same table: Untreated 1.8, 2nd Ab only 1.93

Chain of IMC-A12 (antibody) (VH): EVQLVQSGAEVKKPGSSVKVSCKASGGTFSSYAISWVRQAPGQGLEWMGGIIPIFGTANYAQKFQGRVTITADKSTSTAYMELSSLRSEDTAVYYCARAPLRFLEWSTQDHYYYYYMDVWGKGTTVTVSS
Chain of IMC-A12 (antibody) (VL): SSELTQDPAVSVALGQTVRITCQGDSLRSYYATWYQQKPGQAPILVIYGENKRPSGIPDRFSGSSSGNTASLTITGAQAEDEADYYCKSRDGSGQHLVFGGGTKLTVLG

## IMC-A12 (antibody)
[1]
  MFI: 40.1
[2]
  MFI: 23
[3]
  MFI: 18.3

From patent publication US20220348665A1
